In article PMC5458393, “Crystal structure of N-acetylmannosamine kinase from Fusobacterium nucleatum” (Acta Crystallographica. Section F, Structural Biology …, 2017):

Molecular target: the molecule itself
Assay: crystal structure; apo FnNanK at 14 mg/ml; sitting-drop vapour diffusion, 293 K; 0.2 M lithium sulfate, 0.1 M Tris-HCl pH 8.5, 30% PEG 4000; 2.23 A; one homodimer in the asymmetric unit

B1: Fusobacterium nucleatum N-acetylmannosamine kinase (enzyme, F. nucleatum)
chain: ITSLYKKAGFMNILAIDIGGTMIKYGLVSFDGKILSTDKIKTEASKGLNNILNKIDNIFKRYKENNPVGIAVSGTGQINGMIGKVIGGNPIIPNWIGTNLVKILEEKYNLPIVLENDVNCVALGEKWVGAGKDLSNFICLTIGTGIGGGILLNNQLFRGENFVAGEFGHILIKKGEFEQFASTTALIRLVKERTGKTLNGKEIFDLEKKEILEYQEIISEWIENLTDGLSSIIYCFNPANIILGGGVIEQGEPLINRIKNSLFKKIGPQFKEKLNITQAKLGNNAGMIGASYLLLEKINKR
notes: N-acetylmannosamine kinase (NanK; EC 2.7.1.60) of Fusobacterium nucleatum, synthetic gene; primers run from the start codon to the stop codon; The tag was not removed; also called FnNanK; F. nucleatum NanK; source: E. coli BL21(DE3), purified (HisTrap FF, Superdex 200 size-exclusion); not shown: His6, N-terminal, kept
  stoichiometry N: 2
